{
  "source": "patent US20250326791A1",
  "about": "(published 2025)",
  "experiment_in_all_cases": "protein binding radioassay",
  "key": {"µ opioid receptor (MOR)": {"target": "µ opioid receptor (MOR)"}, "δ opioid receptor (DOR)": {"target": "δ opioid receptor (DOR)"}, "κ opioid receptor (KOR)": {"target": "κ opioid receptor (KOR)"}},
  "note": "Bridges are numbered along the chain shown (N, C = ends). Where no end group is shown, it is not given here. [ ]: non-standard residue; d: D form.",
  "data": [
    {"binder": "Y[dA]GF[dL]KCFRYPNGVLACT (disulfide 7-17, 18 residues)", "note": "[DADLE-OL II]", "values": [
      {"measurement": "Kd", "setting": "µ opioid receptor (MOR)", "result": 123, "unit": "nM"},
      {"measurement": "Kd", "setting": "δ opioid receptor (DOR)", "result": 275, "unit": "nM"},
      {"measurement": "Kd", "setting": "κ opioid receptor (KOR)", "result": 1080, "unit": "nM"}
    ]},
    {"binder": "YASPKCFRY[dA]GF[dL]LACT (disulfide 6-16)", "note": "[DADLE-OL]", "values": [
      {"measurement": "Kd", "setting": "µ opioid receptor (MOR)", "result": 3540, "unit": "nM"},
      {"measurement": "Kd", "setting": "δ opioid receptor (DOR)", "result": 64, "unit": "nM"},
      {"measurement": "Kd", "setting": "κ opioid receptor (KOR)", "result": "> 10000", "unit": "nM"}
    ]}
  ]
}
